The values below come from patent publication US20250206837A1 (ELIXIRON IMMUNOTHERAPEUTICS HONG KONG, published 2025).

In assay [1] the target is T1, Recombinant His-tagged human CD36.ECD protein (Sino Biological) (human, UniProt P16671 30-439).
T1 construct: Bought protein; also called hCD36.ECD; hCD36; not shown: His tag
Description: ELISA, coated human CD36.ECD (FIG. 2C). Here is the method: (§1) ELISA materials and methods: Recombinant His-tagged human CD36.ECD protein or His-tagged mouse CD36.ECD protein (both from Sino Biological) was immobilized on 96 well microtiter plate at a concentration of 1 μg/mL in Coating Solution (SeraCare) overnight at 4° C. The wells were washed with wash solution (0.05% Tween20 in PBS) and blocked with 1% BSA in PBS. Serial dilutions of anti-CD36 antibodies were added to wells. After incubation at 37° C. for 1 h, the wells were washed with wash solution. Peroxidase-conjugated Goat anti-human kappa Light chain antibody (Sigma) was applied to each well at 37° C. for 1 h incubation. After washing, the wells were developed with TMB substrate for 5-10 min at room temperature and then stopped with 1 N HCl. Thereafter absorbance was measured at 450 nm and 650 nm. EC50 values were calculated through GraphPad Prism7.
(§2) The competitor anti-CD36 antibody ONA, which is derived from clone “ONA-0-v1” as disclosed in WO2021176424A1 in hIgG4-S228P-FALA format.

The target of assay [2] is T1, Recombinant His-tagged human CD36.ECD …. Description: ELISA, coated human CD36.ECD (FIG. 2A). Here is the method:
as §1, §2

For assay [3] the target is unchanged. Description: ELISA, coated human CD36.ECD (FIG. 2D). Here is the method: as §1, §2
Assay [4] has the same target. Description: ELISA, coated human CD36.ECD (FIG. 2B). The procedure:
as §1, §2

The target of assay [5] is T2, full-length human CD36-Flag overexpressed on stable F293 cells (human, UniProt P16671 2-472). Description: cell-based or functional assay.
For assay [6], the target named is T3, mouse CD36-His overexpressed on stable F293 cells (mouse, UniProt Q08857 1-472). Description: cell-based or functional assay.
Assay [7] concerns the target T2, full-length human CD36-Flag …. Description: flow cytometry, F293 cells overexpressing human CD36. The source says: (§3) After washing with FACS buffer (2% FBS in PBS), the cells were stained with anti-human IgG-Alexa Fluor 647 and analyzed by Attune NxT Flow Cytometer (Thermo Scientific).
For assay [8], the target named is T3, mouse CD36-His overexpressed on stable …. Description: flow cytometry, F293 cells overexpressing mouse CD36.
Text: as §3

For assay [9], the target named is T4, rhesus CD36-His overexpressed on stable F293 cells (rhesus, UniProt P16671 2-472 (human entry)).
T4 construct: Gene segment from Sino Biological; also called F293/rhesusCD36; not shown: His tag
Description: flow cytometry, F293 cells overexpressing rhesus CD36.
Text: as §3

T2 sequence (P16671 2-472): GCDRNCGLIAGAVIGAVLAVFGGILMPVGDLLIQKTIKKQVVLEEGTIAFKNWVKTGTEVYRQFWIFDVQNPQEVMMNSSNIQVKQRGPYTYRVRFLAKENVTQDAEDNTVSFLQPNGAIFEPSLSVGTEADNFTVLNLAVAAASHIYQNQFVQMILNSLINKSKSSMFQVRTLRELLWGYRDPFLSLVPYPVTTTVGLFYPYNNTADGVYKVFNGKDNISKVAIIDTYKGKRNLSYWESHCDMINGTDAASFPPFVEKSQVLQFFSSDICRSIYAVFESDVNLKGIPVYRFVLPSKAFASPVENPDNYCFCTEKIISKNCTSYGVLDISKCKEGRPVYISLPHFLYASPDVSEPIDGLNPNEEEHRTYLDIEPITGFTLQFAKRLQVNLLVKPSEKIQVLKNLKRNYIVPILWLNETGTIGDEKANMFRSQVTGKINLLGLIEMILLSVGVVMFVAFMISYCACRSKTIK
T3 sequence (Q08857 whole entry): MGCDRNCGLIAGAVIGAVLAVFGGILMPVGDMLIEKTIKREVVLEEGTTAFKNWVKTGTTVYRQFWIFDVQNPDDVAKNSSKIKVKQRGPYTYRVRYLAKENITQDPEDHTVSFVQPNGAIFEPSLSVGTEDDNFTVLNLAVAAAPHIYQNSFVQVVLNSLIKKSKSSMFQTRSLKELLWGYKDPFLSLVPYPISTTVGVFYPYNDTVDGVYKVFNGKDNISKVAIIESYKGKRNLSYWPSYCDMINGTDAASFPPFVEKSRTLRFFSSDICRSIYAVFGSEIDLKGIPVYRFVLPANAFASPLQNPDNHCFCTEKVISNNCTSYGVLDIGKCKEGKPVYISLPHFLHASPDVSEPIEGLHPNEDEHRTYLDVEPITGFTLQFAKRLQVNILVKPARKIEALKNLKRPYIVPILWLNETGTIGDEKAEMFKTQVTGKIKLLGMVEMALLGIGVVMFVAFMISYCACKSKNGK
T1 sequence (P16671 30-439 limits assumed): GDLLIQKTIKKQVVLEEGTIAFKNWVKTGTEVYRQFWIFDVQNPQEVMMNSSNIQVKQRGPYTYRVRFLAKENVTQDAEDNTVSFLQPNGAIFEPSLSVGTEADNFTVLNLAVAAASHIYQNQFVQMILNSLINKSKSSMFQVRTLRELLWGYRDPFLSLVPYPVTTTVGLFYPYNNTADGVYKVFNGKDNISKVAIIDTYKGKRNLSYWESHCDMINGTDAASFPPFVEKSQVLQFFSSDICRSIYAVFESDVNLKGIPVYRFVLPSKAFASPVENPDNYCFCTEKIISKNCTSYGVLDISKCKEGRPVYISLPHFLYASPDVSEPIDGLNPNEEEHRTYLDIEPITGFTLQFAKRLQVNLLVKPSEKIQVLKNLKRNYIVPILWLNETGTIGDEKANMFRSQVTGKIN
T4 sequence (P16671 other isoform, or with tags, fused parts or gaps): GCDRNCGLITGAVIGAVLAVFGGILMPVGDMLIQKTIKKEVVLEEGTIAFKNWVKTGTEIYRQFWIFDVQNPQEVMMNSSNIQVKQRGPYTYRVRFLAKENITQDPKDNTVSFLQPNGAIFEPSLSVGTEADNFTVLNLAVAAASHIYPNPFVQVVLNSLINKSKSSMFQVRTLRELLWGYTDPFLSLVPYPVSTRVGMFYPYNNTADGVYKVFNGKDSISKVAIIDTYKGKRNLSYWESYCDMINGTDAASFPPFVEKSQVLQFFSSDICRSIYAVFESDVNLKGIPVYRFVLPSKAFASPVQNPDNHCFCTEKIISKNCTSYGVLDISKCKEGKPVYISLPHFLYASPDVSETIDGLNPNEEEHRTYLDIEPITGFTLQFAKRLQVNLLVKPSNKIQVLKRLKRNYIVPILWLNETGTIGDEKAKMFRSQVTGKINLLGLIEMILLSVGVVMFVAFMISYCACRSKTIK

B1: 117_30AA (antibody, V domains shown)
VH: EVQLVESGGGLVQPGGSLRLSCAASGFTIAAFGIHWVRQAPGKGLEWVAWIAPYGGYTYYADSVKGRFTISADTSKNTAYLQMNSLRAEDTAVYYCARSFFGYFDYWGQGTLVTVSS
VL: DIQMTQSPSSLSASVGDRVTITCRASQDVSNWVAWYQQKPGKAPKLLISYATSLYSGVPSRFSGSGSGTDFTLTISSLQPEDFATYYCQQHSNAPLTFGQGTKVEIKR
notes: full-length IgG, human kappa
Regarding B1, in assay [1], the half-maximal effective concentration (EC50) came to 0.145 nM.

B2: 117_58E (antibody, V domains shown)
VH: EVQLVESGGGLVQPGGSLRLSCAASGFTISSFGIHWVRQAPGKGLEWVAWIAPYGGYEYYADSVKGRFTISADTSKNTAYLQMNSLRAEDTAVYYCARSFFGYFDYWGQGTLVTVSS
VL: DIQMTQSPSSLSASVGDRVTITCRASQDVSNWVAWYQQKPGKAPKLLISYATSLYSGVPSRFSGSGSGTDFTLTISSLQPEDFATYYCQQHSNAPLTFGQGTKVEIKR
notes: full-length IgG, human kappa
Take B2: the concentration giving a half-maximal response (EC50) in [2] was 0.422 nM.

B3: 117_101A (antibody, V domains shown)
VH: EVQLVESGGGLVQPGGSLRLSCAASGFTISSFGIHWVRQAPGKGLEWVAWIAPYGGYTYYADSVKGRFTISADTSKNTAYLQMNSLRAEDTAVYYCARSFAGYFDYWGQGTLVTVSS
VL: DIQMTQSPSSLSASVGDRVTITCRASQDVSNWVAWYQQKPGKAPKLLISYATSLYSGVPSRFSGSGSGTDFTLTISSLQPEDFATYYCQQHSNAPLTFGQGTKVEIKR
notes: full-length IgG, human kappa
Turning to B3, in [3], the EC50 was 0.0751 nM.

B4: 117_30FA (antibody, V domains shown)
VH: EVQLVESGGGLVQPGGSLRLSCAASGFTIFAFGIHWVRQAPGKGLEWVAWIAPYGGYTYYADSVKGRFTISADTSKNTAYLQMNSLRAEDTAVYYCARSFFGYFDYWGQGTLVTVSS
VL: DIQMTQSPSSLSASVGDRVTITCRASQDVSNWVAWYQQKPGKAPKLLISYATSLYSGVPSRFSGSGSGTDFTLTISSLQPEDFATYYCQQHSNAPLTFGQGTKVEIKR
notes: full-length IgG, human kappa
As to B4, the EC50 in assay [1] was 0.202 nM.

B5: 117_101K (antibody, V domains shown)
VH: EVQLVESGGGLVQPGGSLRLSCAASGFTISSFGIHWVRQAPGKGLEWVAWIAPYGGYTYYADSVKGRFTISADTSKNTAYLQMNSLRAEDTAVYYCARSFKGYFDYWGQGTLVTVSS
VL: DIQMTQSPSSLSASVGDRVTITCRASQDVSNWVAWYQQKPGKAPKLLISYATSLYSGVPSRFSGSGSGTDFTLTISSLQPEDFATYYCQQHSNAPLTFGQGTKVEIKR
notes: full-length IgG, human kappa
For the molecule B5, the half-maximal effective concentration (EC50) in [3] stood at 1.46 nM.

B6: 117_31D (antibody, V domains shown)
VH: EVQLVESGGGLVQPGGSLRLSCAASGFTISDFGIHWVRQAPGKGLEWVAWIAPYGGYTYYADSVKGRFTISADTSKNTAYLQMNSLRAEDTAVYYCARSFFGYFDYWGQGTLVTVSS
VL: DIQMTQSPSSLSASVGDRVTITCRASQDVSNWVAWYQQKPGKAPKLLISYATSLYSGVPSRFSGSGSGTDFTLTISSLQPEDFATYYCQQHSNAPLTFGQGTKVEIKR
notes: full-length IgG, human kappa
As to B6, the concentration giving a half-maximal response (EC50) in [4] came out at 0.0375 nM.

B7: 117_30FT (antibody, V domains shown)
VH: EVQLVESGGGLVQPGGSLRLSCAASGFTIFTFGIHWVRQAPGKGLEWVAWIAPYGGYTYYADSVKGRFTISADTSKNTAYLQMNSLRAEDTAVYYCARSFFGYFDYWGQGTLVTVSS
VL: DIQMTQSPSSLSASVGDRVTITCRASQDVSNWVAWYQQKPGKAPKLLISYATSLYSGVPSRFSGSGSGTDFTLTISSLQPEDFATYYCQQHSNAPLTFGQGTKVEIKR
notes: full-length IgG, human kappa
On to B7, for which the EC50 in [1] came out at 0.254 nM.

B8: 117_32D (antibody, V domains shown)
VH: EVQLVESGGGLVQPGGSLRLSCAASGFTISSDGIHWVRQAPGKGLEWVAWIAPYGGYTYYADSVKGRFTISADTSKNTAYLQMNSLRAEDTAVYYCARSFFGYFDYWGQGTLVTVSS
VL: DIQMTQSPSSLSASVGDRVTITCRASQDVSNWVAWYQQKPGKAPKLLISYATSLYSGVPSRFSGSGSGTDFTLTISSLQPEDFATYYCQQHSNAPLTFGQGTKVEIKR
notes: full-length IgG, human kappa
For the molecule B8, the EC50 in assay [4] came to 0.0276 nM.

B9: 117_31A (antibody, V domains shown)
VH: EVQLVESGGGLVQPGGSLRLSCAASGFTISAFGIHWVRQAPGKGLEWVAWIAPYGGYTYYADSVKGRFTISADTSKNTAYLQMNSLRAEDTAVYYCARSFFGYFDYWGQGTLVTVSS
VL: DIQMTQSPSSLSASVGDRVTITCRASQDVSNWVAWYQQKPGKAPKLLISYATSLYSGVPSRFSGSGSGTDFTLTISSLQPEDFATYYCQQHSNAPLTFGQGTKVEIKR
notes: full-length IgG, human kappa
As for B9, the concentration for a half-maximal effect (EC50) in [4] stood at 0.0991 nM.

B10: 117_30DT (antibody, V domains shown)
VH: EVQLVESGGGLVQPGGSLRLSCAASGFTIDTFGIHWVRQAPGKGLEWVAWIAPYGGYTYYADSVKGRFTISADTSKNTAYLQMNSLRAEDTAVYYCARSFFGYFDYWGQGTLVTVSS
VL: DIQMTQSPSSLSASVGDRVTITCRASQDVSNWVAWYQQKPGKAPKLLISYATSLYSGVPSRFSGSGSGTDFTLTISSLQPEDFATYYCQQHSNAPLTFGQGTKVEIKR
notes: full-length IgG, human kappa
Turning to B10, the concentration for a half-maximal effect (EC50) in assay [1] was found to be 0.103 nM.

B11: 117_30AT (antibody, V domains shown)
VH: EVQLVESGGGLVQPGGSLRLSCAASGFTIATFGIHWVRQAPGKGLEWVAWIAPYGGYTYYADSVKGRFTISADTSKNTAYLQMNSLRAEDTAVYYCARSFFGYFDYWGQGTLVTVSS
VL: DIQMTQSPSSLSASVGDRVTITCRASQDVSNWVAWYQQKPGKAPKLLISYATSLYSGVPSRFSGSGSGTDFTLTISSLQPEDFATYYCQQHSNAPLTFGQGTKVEIKR
notes: full-length IgG, human kappa
Take B11: the EC50 in [1] is 0.247 nM.

B12: 117_57D (antibody, V domains shown)
VH: EVQLVESGGGLVQPGGSLRLSCAASGFTISSFGIHWVRQAPGKGLEWVAWIAPYGGDTYYADSVKGRFTISADTSKNTAYLQMNSLRAEDTAVYYCARSFFGYFDYWGQGTLVTVSS
VL: DIQMTQSPSSLSASVGDRVTITCRASQDVSNWVAWYQQKPGKAPKLLISYATSLYSGVPSRFSGSGSGTDFTLTISSLQPEDFATYYCQQHSNAPLTFGQGTKVEIKR
notes: full-length IgG, human kappa
For B12, the “oxLDL uptake IC50 (nM), F293/hCD36” value in [5] was 0.349 nM. In addition, in assay [6], the “oxLDL uptake IC50 (nM), F293/mCD36” value turned out to be 0.783 nM. Besides, the half-maximal effective concentration (EC50) in assay [2] came to 0.0529 nM; in [7], 0.111 µg/mL; in assay [8], 0.309 µg/mL; in assay [9], 0.397 µg/mL.

B13: 117_57A (antibody, V domains shown)
VH: EVQLVESGGGLVQPGGSLRLSCAASGFTISSFGIHWVRQAPGKGLEWVAWIAPYGGATYYADSVKGRFTISADTSKNTAYLQMNSLRAEDTAVYYCARSFFGYFDYWGQGTLVTVSS
VL: DIQMTQSPSSLSASVGDRVTITCRASQDVSNWVAWYQQKPGKAPKLLISYATSLYSGVPSRFSGSGSGTDFTLTISSLQPEDFATYYCQQHSNAPLTFGQGTKVEIKR
notes: full-length IgG, human kappa
For B13, the 50% effective concentration (EC50) in [2] was found to be 1.52 nM.

B14: 117_57R (antibody, V domains shown)
VH: EVQLVESGGGLVQPGGSLRLSCAASGFTISSFGIHWVRQAPGKGLEWVAWIAPYGGRTYYADSVKGRFTISADTSKNTAYLQMNSLRAEDTAVYYCARSFFGYFDYWGQGTLVTVSS
VL: DIQMTQSPSSLSASVGDRVTITCRASQDVSNWVAWYQQKPGKAPKLLISYATSLYSGVPSRFSGSGSGTDFTLTISSLQPEDFATYYCQQHSNAPLTFGQGTKVEIKR
notes: full-length IgG, human kappa
Turning to B14, the EC50 in [2] was determined as 0.0695 nM.

B15: 117_DA57D (antibody, V domains shown)
VH: EVQLVESGGGLVQPGGSLRLSCAASGFTIDAFGIHWVRQAPGKGLEWVAWIAPYGGDTYYADSVKGRFTISADTSKNTAYLQMNSLRAEDTAVYYCARSFFGYFDYWGQGTLVTVSS
VL: DIQMTQSPSSLSASVGDRVTITCRASQDVSNWVAWYQQKPGKAPKLLISYATSLYSGVPSRFSGSGSGTDFTLTISSLQPEDFATYYCQQHSNAPLTFGQGTKVEIKR
notes: full-length IgG, human kappa
On to B15, for which the “oxLDL uptake IC50 (nM), F293/hCD36” value in [5] came to 0.332 nM. Further, the concentration giving a half-maximal response (EC50) in assay [3] was 0.049 nM; in [7], 0.089 µg/mL; in assay [8], 0.271 µg/mL; in assay [9], 0.416 µg/mL.

B16: 117_30D (antibody, V domains shown)
VH: EVQLVESGGGLVQPGGSLRLSCAASGFTIDSFGIHWVRQAPGKGLEWVAWIAPYGGYTYYADSVKGRFTISADTSKNTAYLQMNSLRAEDTAVYYCARSFFGYFDYWGQGTLVTVSS
VL: DIQMTQSPSSLSASVGDRVTITCRASQDVSNWVAWYQQKPGKAPKLLISYATSLYSGVPSRFSGSGSGTDFTLTISSLQPEDFATYYCQQHSNAPLTFGQGTKVEIKR
notes: full-length IgG, human kappa
For B16, in assay [4], the EC50 amounted to 0.141 nM.
